In IntAct's records for PubMed 18203820:

Target: djb11_human DNAJB11 (UniProt Q9UBS4)
Sequence (Q9UBS4 whole entry): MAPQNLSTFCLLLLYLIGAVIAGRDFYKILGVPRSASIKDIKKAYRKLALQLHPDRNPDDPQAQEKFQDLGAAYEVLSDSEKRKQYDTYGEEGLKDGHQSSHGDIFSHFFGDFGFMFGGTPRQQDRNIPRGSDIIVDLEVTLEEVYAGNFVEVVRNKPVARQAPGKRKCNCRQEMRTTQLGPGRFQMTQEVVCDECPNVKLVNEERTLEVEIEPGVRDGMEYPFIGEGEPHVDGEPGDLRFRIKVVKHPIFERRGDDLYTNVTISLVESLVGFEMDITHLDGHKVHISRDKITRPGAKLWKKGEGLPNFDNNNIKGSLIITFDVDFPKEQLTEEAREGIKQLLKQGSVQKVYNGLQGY

effect of a mutation on the interaction: disrupting interaction
Substance: Endoplasmic reticulum chaperone BiP (Mesocricetus auratus (Golden hamster)), P07823 R197E
